Like-named read-outs stand apart in the source and are kept apart here.
Tests used:
[1] = target: T1, human SST2 (Homo sapiens, UniProt P30874); test: Competition binding assay with 125I-SS-14 on membranes of HEK-SST2 cells; details: 125I-SS-14 radioligand
T1 construct: expressed in transfected cells; host or cells: HEK cells (HEK-SST2), stably transfected
Procedure: Human Embryonic Kidney (HEK) cells were stably transfected with plasmids encoding the human SST2 and SST5 (HEK-SST2 and HEK-SST5) and cultivated as previously described. […] Nontransfected HEK cells were used as negative control.
Binding assays were performed as described previously.

[2] = target: T1, human SST2; set-up: method as in PMID 32757150; details: HEK-SST2 membranes, 125I-SS-14 radioligand; cited from earlier work
[3] = test system: dual SST2- and SST5-expressing xenografts; details: use of basic amino acids; reference not given; cited from earlier work

T1 sequence (P30874 whole entry): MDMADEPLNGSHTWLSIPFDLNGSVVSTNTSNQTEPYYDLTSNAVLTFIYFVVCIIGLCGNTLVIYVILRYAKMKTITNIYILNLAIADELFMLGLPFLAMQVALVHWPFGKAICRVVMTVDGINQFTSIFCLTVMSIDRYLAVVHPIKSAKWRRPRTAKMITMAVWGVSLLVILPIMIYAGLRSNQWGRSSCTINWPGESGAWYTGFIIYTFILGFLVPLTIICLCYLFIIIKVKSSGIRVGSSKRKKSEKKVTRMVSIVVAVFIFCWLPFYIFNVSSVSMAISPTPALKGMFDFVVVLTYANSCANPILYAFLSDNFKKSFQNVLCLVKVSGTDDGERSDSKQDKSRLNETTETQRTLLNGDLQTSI

Molecule	IC50 [2] [nM]	further results
CC(C)[C@@H]1NC(=O)[C@H](CCCCN)NC(=O)[C@@H](Cc2c[nH]c3ccccc23)NC(=O)[C@H](Cc2ccc(O)c(I)c2)NC(=O)[C@@H](NC(=O)[C@@H](Cc2ccc(N)c(I)c2)NC(=O)CN2CCN(CC(=O)O)CCN(CC(=O)O)CCN(CC(=O)O)CC2)CSSC[C@@H](C(=O)N[C@H](C(N)=O)[C@@H](C)O)NC1=O [^natLu-DOTA-ST8950, metal not drawn]	–	IC50 [1]: 0.37 nM
(4-amino-3-iodo)-D-Phe-c[Cys-(3-iodo)-Tyr-D-Trp-Lys-Val-Cys]-Thr-NH2 [ST8950]	0.28	–
[^177Lu]Lu-DOTA-TATE	–	Kidney uptake reduction with basic amino acids [3]: 40%
^natGa-DOTA-NOC: natGa complex of DOTA-NOC, values from	0.7	–

From publication PMC7570871, “Evaluation of a New ^177Lu-Labeled Somatostatin Analog for the Treatment of Tumors Expressing Somatostatin Receptor Subtypes 2 and 5” (Molecules, 2020)
